For one substance, amount of binding (mean fluorescence intensity) relative to control IgG pretreatment results are on record in patent EP4793290A2.

In the experiment the target is mouse PD-L1 (mouse) (UniProt Q9EP73). Nature of the experiment: flow cytometry on DOdKO-mPD-L1/mCD80 cells pretreated with 10 µg/ml TKMG48. In general terms: Flow cytometry measures light scatter and fluorescence of single cells or particles in a stream.
Chain of mouse PD-L1 (mouse) (Q9EP73 19-290 limits assumed): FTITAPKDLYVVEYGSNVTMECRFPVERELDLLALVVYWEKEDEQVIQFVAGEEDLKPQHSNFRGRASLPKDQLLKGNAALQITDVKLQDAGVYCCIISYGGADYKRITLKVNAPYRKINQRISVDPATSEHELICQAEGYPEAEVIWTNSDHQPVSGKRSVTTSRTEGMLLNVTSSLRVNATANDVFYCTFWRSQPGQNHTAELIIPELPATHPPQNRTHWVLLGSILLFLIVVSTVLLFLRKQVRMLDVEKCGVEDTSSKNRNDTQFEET

Chain of soluble mouse PD-1 extracellular region (PD-1-EC) protein (Q02242 other isoform, or with tags, fused parts or gaps): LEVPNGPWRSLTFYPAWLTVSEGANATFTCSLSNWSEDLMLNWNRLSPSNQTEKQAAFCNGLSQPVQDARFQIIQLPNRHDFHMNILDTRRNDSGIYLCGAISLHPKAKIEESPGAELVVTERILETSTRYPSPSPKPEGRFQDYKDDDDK

On to “soluble mouse PD-1 extracellular region (PD-1-EC) protein (from UniProt Q02242 25-167) (receptor)”, for which the amount of binding (mean fluorescence intensity) relative to control IgG pretreatment stood at 10.1 times.
